Several values for one entry are separate records, joined by “and”; a condition that tells them apart may be missing. Equal values may be shown once. Read-outs that look alike come from different tables or passages of the source.
Legend:
[1] = molecular target: T1, SARS-CoV-2 spike receptor-binding domain (RBD) (SARS-CoV-2, Wuhan-Hu-1, UniProt P0DTC2)
[2] = molecular target: SARS-CoV-2 spike protein receptor-binding domain (RBD) (SARS-CoV-2, UniProt P0DTC2); test: cell-based or functional assay
[3] = molecular target: T2, SARS-CoV-2 spike receptor-binding domain (SARS-CoV-2, Wuhan-Hu-1, UniProt P0DTC2); test: SPR; Carterra LSA array, HC200M chip; IgG captured on immobilised anti-human Fc; RBD as analyte, 7-point dilution series 300 nM to 411 pM in 1x HBSTE with 0.5 mg/mL BSA; association 5 min, dissociation 11 min; one-site binding model; two independent measurements; conditions: both partners purified
T2 construct: also called RBD; SARS-CoV-2 RBD

[4] = molecular target: T1, SARS-CoV-2 spike receptor-binding …; test: SPR; array SPR (Carterra LSA), HC200M chip; IgG captured on immobilised anti-human Fc; antigen as analyte in a 7-point series, RBD 300 nM to 411 pM or trimer 100 nM to 137 pM, in 1x HBSTE with 0.5 mg/mL BSA; association 5 min, dissociation 11 min; one-site model; constants for the trimer are called avidities; conditions: both partners purified

B1: E5 (antibody, V domains shown)
VH: EVQLVQSGAEVKKPGASVKVSCKVSGYSFTDHSIHWVRQAPGKGLEWMGGINPYTGDTIYAQKFQGRVTMTEDTSTDTAYMELSSLKSEDTAVYYCAKDGWGSLLNGIAVAGLDYWGQGTLVTVSS
VL: DIQMTQSPSSVSASVGDRVTITCRASQDISTYLAWYQQKPGKAPKLLIYASSNLASGVPSRFSGSGSGTDFTLTISSLQPEDFANYYCHQYATYPWGFGGGTKVEIK
B1: binds [1].

B2: G8 (antibody, V domains shown)
VH: EVQLVESGAEVKKPGASVKVSCKVSGYSFTDHSIHWVRQAPGKGLEWMGGINPYTGDTIYAQKFQGRVTMTEDTSTDTAYMELSSLKSEDTAVYYCARDGWGSLLNGIAVAGLDYWGQGTLVTVSS
VL: DIQMTQSPSSVSASVGDRVTITCRASQSIGSFLAWYQQKPGKAPKLLIYASSNLASGVPSRFSGSGSGTDFTLTISSLQPEDFANYYCHQYATYPWTFGGGTKVEIK
B2: binds [1].

B3: A2 (antibody, V domains shown)
VH: QVQLVESGAEVKKPGASVKVSCKVSGYSFTDHSIHWVRQAPGKGLEWMGGINPYTGDTIYAQKFQGRVTMTEDTSTDTAYMELSSLKSEDTAVYYCARDGYCSGGSCYSFSGYGMDVWGQGTTVTVS
VL: DIQMTQSPSSVSASVGDRVTITCRASQDIGNHLAWYQQKPGKAPKLLIYASSNLASGVPSRFSGSGSGTDFTLTISSLQPEDFANYYCHQYTTYPWTFGGGTKVEIK
B3: binds [1].

B4: H7 (antibody, V domains shown)
VH: EVQLVQSGAEVKKPGASVKVSCKVSGYSFTDHSIHWVRQAPGKGLEWMGGINPYTGDTIYAQKFQGRVTMTEDTSTDTAYMELSSLKSEDTAVYYCARDGYDFWSGSYGMDVWGQGAQVTVS
VL: DIQMTQSPSSVSASVGDRVTITCRASQDIGNHLAWYQQKPGKAPKLLIYGVSERPSGVPSRFSGSGSGTDFTLTISSLQPEDFANYYCHQYATYPWTFGDGTKVEIK
B4: binds [1].

B5: H5 (antibody, V domains shown)
VH: EVQLVQSGAEVKKPGASVKVSCKVSGYSFTDHSIHWVHQAPGKGLEWMGGINPYTGDTIYAQKFQGRVTMTEDTSTDTAYMELSSLKSEDTAVYYCARDGYYGSGTYYYYGMDVWGQGTTVTVSS
VL: DIQMTQSPSSVSASVGDRVTITCRASQSISTYLAWYQQKPGKAPKLLIYDASNRATGVPSRFSGSGSGTDFTLTISSLQPEDFANYYCLQYHNYPWTFGGGTKVEIK
B5: binds [1].

B6: G9 (antibody, V domains shown)
VH: QVQLVQSGAEVKKPGASVKVSCKVSGYSFTDHSIHWVRQAPGKGLEWMGGINPYTGDTIYAQKFQGRVTMTEDTSTDTAYMELSSLKSEDTAVYYCARDGYGDYRGLYGMDVWGRGTTVTVSS
VL: DIQMTQSPSSVSASVGDRVTITCRASQDIGNHLAWYQQKPGKAPKLLIYASSNLASGVPSRFSGSGSGTDFTLTISSLQPEDFANYYCHQYATYPWTFGGGTKVEIK
B6: binds [1].

B7: E4 (antibody, V domains shown)
VH: QVQLVQSGAEVKKPGASVKVSCKVSGYSFTDHSIHWVRQAPGKGLEWMGGINPYTGDTIYAQKFQGRVTMTEDTSTDTAYMELSSLKSEDTAVYYCARDGYDFWSGSYGMDVWGQGTLVTVSS
VL: DIQMTQSPSSVSASVGDRVTITCRASQDIGNHLAWYQQKPGKAPKLLIYASSNLASGVPSRFSGSGSGTDFTLTISSLQPEDFANYYCHQYATYPWTFGGGTKVEIK
B7: binds [1].

B8: H9 (antibody, V domains shown)
VH: EVQLVESGAEVKKPGASVKVSCKVSGYSFTDHSIHWVRQAPGKGLEWMGGINPYTGDTIYAQKFQGRVTMTEDTSTDTAYMELSSLKSEDTAVYYCARDAYSGSYPYYYYGMDVWGQGTTVTVSS
VL: DIQMTQSPSSVSASVGDRVTITCRASQNIDTFLAWYQQKPGKAPKLLIYASSNLASGVPSRFSGSGSGTDFTLTISSLQPEDFANYYCHQYATYPWTFGDGTKVEIK
B8: binds [1].

B9: #41 (antibody, V domains shown)
VH: QVQLVQSGAEVKKPGASVKVSCKVSGYTSPATIHWVRQAPGKGLEWMGGISPYKGDTIYAQKFQGRVTMTEDTSTDTAYMELSSLKSEDTAVYYCAKDSYYYDSSGSGLGGGFDYWGQGTLVTVSS
VL: DIQMTQSPSSVSASVGDRVTITCRASRDISSYLAWYQQKPGKAPKLLIYGASTRASGVPSRFSGSGSGTDFTLTISSLQPEDFANYYCLQYSIYPWTFGGGTKVEIK
In the case of B9, the “SARS-CoV-2 pseudovirus IC50 (neutralisation, HeLa-hACE2 cells); pair blocked: ACE2 with RBD” value [2] is reported as 3.7 ng/mL.

B10: #41 (antibody, V domains shown)
VH: QVQLVQSGAEVKKPGASVKVSCKVSGYTSPATIHWVRQAPGKGLEWMGGISPYKGDTIYAQKFQGRVTMTEDTSTDTAYMELSSLKSEDTAVYYCAKDSYYYDSSGSGLGGGFDYWGQGTLVTVSS
VL: DIQMTQSPSSVSASVGDRVTITCRASRDISSYLAWYQQKPGKAPKLLIYGASTRASGVPSRFSGSGSGTDFTLTISSLQPEDFANYYCLQYSIYPWTFGGGTKVEIK
With B10 the Kd [3] was 0.257 nM and 0.333 nM.

B11: selected anti-SARS-CoV-2 spike antibody B2 (antibody, V domains shown)
VH: QVQLVQSGAEVKKPGASVKVSCKVSGYSFTDHSIHWVRQAPGKGLEWMGGINPYTGDTIYAQKFQGRVTMTEDTSTDTAYMELSSLKSEDTAVYYCARDAYSGSYPYYYYGMDVWGQGTTVTVSS
VL: DIQMTQSPSSVSASVGDRVTITCRASEGISNYLAWYQQKPGKAPKLLIYGTSDRASGIPSRFSGSGSGTDFTLTISSLQPEDFANYYCQQYSAFPWTFGGGTKVEIK
B11: binds [4].

Reference: publication PMC8786865 (Nature Communications, 2022)
